Results on 30 sequences are retold here after the nanobody polyreactivity screen of Harvey et al. (2022).

The data set in a line: yeast display, Sf9 membrane polyspecificity reagent, FACS + sequencing; frameworks hold sequencing errors. The procedure, abridged: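 A nanobody's polyreactivity label depends on the gate it was sorted from. Yeast display cells were stained with 10% biotinylated, detergent-solubilized Sf9 membrane reagent for 1 hour at 4 °C, enriched on streptavidin microbeads and sorted by FACS. The low and high (top ~1%) gates were set on anti-HA fluorescence for expression and streptavidin fluorescence for reagent binding.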
As for “QVQLVESGGCLVQAGGSLRLSCAASGSTFFSYAMGWYRQAPGKESEFVAANTYSSGRTYYADSVKGRFTISRDNAKNTVYLQMHSLKAEDSAVYSCSTPGFVWGRGYDYWGQGTHVTVSS”, the “polyreactivity (PSR sort gate)” value is given as “high polyreactivity”.

For the sequence “QVQLVESGGGLVQAGGSLRLSCAASGFILEPNAMGWYRQAPGKERELVATISFSGGGTYYADSVKGRFTISRDNAKNTVYLQMNSLKPEDTAVYYCAADWYYYVWWYDYWGQGTQVTVSS”, the “polyreactivity (PSR sort gate)” value is on record as “high polyreactivity”. Next, “QVQLVESGGGLVQAGGSLRLSCAASGIIFRGYDMGWYRQAPGKERELVAVITDDGSTYYADSVKGRFTISRDNAKNTVYLQMNSLKPEDTAVYYCNADYLLGHWIWYDYWGQGTQVTVSS”: “low polyreactivity”.

Take “QVQLVESGGGLVQAGGSLRLSCAASGLICTPYAMGWYRQSPGKERELVAAISVSGGRTYYADSVKGRFTISRDNAKNTVYLQMNSLKREDTAVYYCAAALPYGYEYWGQGTQVTVSS”: the “polyreactivity (PSR sort gate)” value is on record as “high polyreactivity”.

Consider “QVQLVESGGGLVQAGGSLRLSCAASGSILQQYTMGWYRPAPGKERELVAAISSSGSSTYYADSVKGRFTISRDNAKNTVYLQMNSLKPEDTAVYYCNADYHDKFYWGQGTQVTVSS”, for which the “polyreactivity (PSR sort gate)” value is listed as “low polyreactivity”. Next, “QDQLVESGGGLVQAGGSLRLSCAASGSTFPLYAMGSYREAPGKERELVADITVSGGSTYYADSVKGRFTISRDNAKNTVYLQMNSLNPEDTAVYYCNADDRSPFPDYWWYPYDYDYGGQGTQVTVSS”: “low polyreactivity”; “QVQLVESGGCLVQAAGRLRLSSAASGSTFYGYAMGWYRQAPGKERQLVAAITVRGGSTYYADSVKGRFTISRDNAKNTVYLQMYSLKPEDTAVYYCNAYIVSGFYVYDYWGQGTQVTVSS”: “high polyreactivity”. For “QVQLVESGGGLVQAGGSLRLSCAASGRNFQVYAMGWYRQAPGKERELVAAISFSGDRTYYADSVKGRFTISRDNAKNTVYLQMNSLKPEDTAVYYCSADGFVYDLRARPGWVDYWGQGTQVTVSS”, the “polyreactivity (PSR sort gate)” value is listed as “low polyreactivity”. With “QVHLVESGGGLVQAGGSLRLSCAASGSTFVANTMRWSRQAPGKERELVASITSGDSTNYADSVKGRFTISRDNAKNTVYLQMNSLKPEDTAVYYCSAETVWYYVGGQLIYYSWGQGTQVTVSS” the entry was “low polyreactivity”; with “QVQLVESGGGLVQAGGSLRLSCAASGSIFTTNAMGWYRQAPGKERELVAAISSRGTSTYYADSVKGRFTISRDNAKNTVYLQMNSLKPEDTAVYYCPNPYGYWGQGTQVTVSS”, “high polyreactivity”; with “QVQLVESGGGLVQAGGSLRLSCAASGSILQYKAMGWYRQAPGKERELVADITSSGGSTYYADSVKGRFTISRDNAKYTVSLQMNSLKPEDTAVYYFAKDTHWAYYWGQGTQVTVSS”, “low polyreactivity”. With “QVQLVESGGGLVQAGGSLRLSCAASGLTLRYYVMGWYRQAPGKERELVASITRSGGSTSYADSVKGRFTISRDNAKNTVYLQMNSLQPEDTAVYYCNRRTYVGTRASFLYYYWGQGTQVTVSA” the entry was “high polyreactivity”; with “QVQLVESGGGLVQAGGRLRLSCAASGIIFKYNAMGWYIQAPGKEREFVAAITGSGGSTYYADSVKGRFTISRDNAKNTVYLQMNSLKPEDTAVYYCARPQWRDWYGYWGQGTQVTVSS”, “low polyreactivity”.

For the sequence “QVQLVESGGGLVQAGGSLRLSCAASGRTFCSYAMGWYRQAPGKERELVAAIRYRGGSTYYADSVKGRFTISRDNAKNTVDLQMNSLKPEDTAVYYCATNTWYYYQRMYYWGQGTQVTVSS”, the “polyreactivity (PSR sort gate)” value was “high polyreactivity”. Next, “QVQLVESGGGLVQAGGSLRLSCPATGSTFGSYAMAWYRPAPGKERELVADISSRGASTYYADSVKGRFTISRDNAKNTVYLQMNSLKPEDTAVYYCARDVYIWYGYGYFPEYEYWGQGTQVTVSS”: “low polyreactivity”; “QVQLQESRGCLVQAGGSLRLTCAASGTISDSGLMGWYRQAPGKERELVAGISSGGITNYADSVKGRFTLSRDNAKNSVYLQMNSLKPEDTAVYWGQGTQVTVSS”: “low polyreactivity”.

Turning to “QVQLVESGGGLVQAGGSLRLSCAASGRIFQPYAMGWYRQAPGKERELVARITSGGSTYADSVKGRFTISRDNAKNTVYLQMNSLKPEDTAVYYCAVRYPWYYRGYAYDYWGQGTQVTVSS”, the “polyreactivity (PSR sort gate)” value was “high polyreactivity”. With “QVQLVESGGGLVQAGGSLRLSCAASGGIFYDYTMGWYRQAPGKERELVAVISSSGSTYYADSVKGRFTISRDNAKNTVYLLMNSLKPEDTAVYYCNALGWYGDYDYWGQGTQVTVSS”, the “polyreactivity (PSR sort gate)” value is “low polyreactivity”. With “QVQLVESGGGLVQAGASLRLSCAASGRTLTGYAMGWYRQAPGKERELVAAITWRDSTYYADSVKGRFTISRDNAKNTVYLQMNSLKPEDTAVYYCNADNATYFVYEFNYWGQGTQVTVSS” the entry was “low polyreactivity”; with “QVQLVESGGGLVQAGGSLRLSCAASGRIFPYYAMGWYRQAPGKERELVAAITSGGTTYYADSVKGRFTISRDNAKNTVYLQMNSLKPEDTAVYYCNAVGTPVKISTDRGYWGQGTQVTVSS”, “low polyreactivity”; with “QVQLVESGGGLVQAGGILRLSCAASGFTLLPYAMGWYTQAPGKERELVAAISRRGVSTYYADSVKGRFTLSRDNAKNTVYLPMNSLNPQDTAVNYCAADSYSRATVQYEYWGQCTQVTVSS”, “high polyreactivity”. Next, “QVQLVESGGGLVQAGGSLRLSCAASGSIFGVNAMGWYRQAPGKERELVAAISNSGVRKYYADSVKGRFTISRDNAKNTVYLQMNSLKPEDTAVYYCARTYQVGDSIDDYWGQGTQVTVSP”: “low polyreactivity”; “QVQLIESGGGLVQAGGSLRLSCAASGIIFRTYAMGWYRQAPGKERELVAAITSGGSTNYADSVKGRFTISRDNAKNTVYLQMNSLKPEDTAVYYCAARTYTSRYSYGYWGQGTQVTVSS”: “high polyreactivity”.

Regarding “QVQLVESGGGLVQAGGSLRLSCAASGIIFRKYAMGWYRQAPGKERELVAAISFSGGTTYYADSVKGRFTISRDNAKNTVYLQMNSLKPEDTAVYYCAADPVAYVIDDYYWGQGTQVTVSS”, the “polyreactivity (PSR sort gate)” value is given as “high polyreactivity”. With “QVQLVESGGGLVQAGGSLRLSCAASGSTFAGYVMGWYRQAPGKERELVAGISYRGGRTYYADSVKGRFTISRDNAKNTVYLQMNSLKPEDTAVYYCAAENAVTGTDGEYYYWGQGTQVTVSS” the entry was “high polyreactivity”; with “QVQLVESGGGLLQAGGSLRLSCAASVRIFYGYAMGWYRPAPGKERELVAAIDSVGDTYYADSVKGRFTISRDNAKNTVYLQMNSLNPEDTAVYYCAADRTGGIVLSPTDEMDYWGQGTQVTVSS”, “low polyreactivity”. For “QVQLQESGAGLDQAGGSLRLSCAPSGYISDIGTMGWYRQAPGKEREFVATIVVGSTTNYADSVKGRFTISRDNAKNTVYLQPESGRYRGVVLRGWLLAVGKFTYWGQGTQETVSS”, the “polyreactivity (PSR sort gate)” value was “low polyreactivity”. Consider “QVQLVESGGGIVQAGGSLRLSCAASGRIVRNYAMGWYRQAPGKERELVAGITRGGRTNYAHSVKGRFTISRDNAKNTVYLQMNSLKPEDTAVYYCNKVSSFGYYYWGQGTQVTVSS”, for which the “polyreactivity (PSR sort gate)” value is reported as “high polyreactivity”. With “QVQLVESGGGLVQAGGSLRLSCAASGSIFGLYAMGWYRQAPGIERALVAAITTTGGSTYYADSVKGRFTISRDNAKNTVYLQMNSLKPEDTAVYYCNADYVAYGPEYDYWGQGTQVTVSS” the entry was “low polyreactivity”; with “QVQLVESGGGLVQAGGSLRLSCAASGGTLGLNAMGRTRQAPGKEREFVAAINRSGGSTRYADSVKGRFTISRDNAKNTVYLQMISLKPEDTAVYYCNAASWTFQTTPKYDYWGQGTQVTVSS”, “high polyreactivity”.
